{"source": "patent US20070027096", "about": "“Aptamers to human epidermal growth factor receptor-3” (published 2007)", "binders": {"B1": {"name": "A19 (ssRNA)", "RNA": "GGGAAUUCCGCGUGUGCAGAUCAGGACAGAGCGCACAGGUGCCAUCCUGGUCUAACGCCCUCGAUGGUCCGUUCGGGAUCCUC"}, "B2": {"name": "A18 (ssRNA)", "RNA": "GGGAAUUCCGCGUGUGCACGAGUAUAGCCCACAUGGCACGACAGGGACGUUUCAUGUGCACAGUUGGUCCGUUCGGGAUCCUC"}, "B3": {"name": "A23 (ssRNA)", "RNA": "GGGAAUUCCGCGUGUGCGAGGGGCGAGGACGCCGAGUAUAGCCCCUAGAGGUGGAUGUUUCACGGUGUCCGUUCGGGAUCCUC"}, "B4": {"name": "A37 (ssRNA)", "RNA": "GGGAAUUCCGCGUGUGCUUGAGAGGUCGUGCCAACUCUCAAGGUUGUCUUUGCUCUCCGCUCUGUGGUCCGUUCGGGAUCCUC"}, "B5": {"name": "A6 (ssRNA)", "RNA": "GGGAAUUCCGCGUGUGCAGAACAAUCGCAUAGGCCGCAAGGUUAGUUUCGUUGUCCGCCCGGUGCAGUCCGUUCGGGAUCCUC"}, "B6": {"name": "A30 (ssRNA)", "RNA": "GGGAAUUCCGCGUGUGCCAGCGAAAGUUGCGUAUGGGUCACAUCGCAGGCACAUGUCAUCUGGGCGGUCCGUUCGGGAUCCUC"}}, "key": {"[1]": {"target": "T1, HER3 extracellular domain (HER3ECD, ErbB3) (Homo sapiens, UniProt P21860 SEQ:20-643)", "T1 sequence (P21860 20-643 E560G)": "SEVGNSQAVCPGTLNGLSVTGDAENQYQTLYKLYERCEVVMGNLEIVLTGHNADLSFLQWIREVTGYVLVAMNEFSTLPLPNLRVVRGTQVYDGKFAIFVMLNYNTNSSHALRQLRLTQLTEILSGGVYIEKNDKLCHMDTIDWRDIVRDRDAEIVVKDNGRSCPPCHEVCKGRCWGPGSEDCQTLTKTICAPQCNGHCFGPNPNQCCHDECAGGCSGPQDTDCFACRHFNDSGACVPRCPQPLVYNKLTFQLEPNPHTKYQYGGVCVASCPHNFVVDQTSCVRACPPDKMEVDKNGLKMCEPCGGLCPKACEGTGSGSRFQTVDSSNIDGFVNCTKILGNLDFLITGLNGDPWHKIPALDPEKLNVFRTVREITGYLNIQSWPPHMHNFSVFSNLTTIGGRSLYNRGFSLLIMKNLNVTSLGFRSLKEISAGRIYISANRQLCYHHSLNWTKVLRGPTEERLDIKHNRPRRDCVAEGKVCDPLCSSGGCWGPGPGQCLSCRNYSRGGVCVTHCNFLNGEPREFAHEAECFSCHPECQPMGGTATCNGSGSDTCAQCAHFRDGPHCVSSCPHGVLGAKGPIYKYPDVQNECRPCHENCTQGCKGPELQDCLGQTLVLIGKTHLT", "assay": "EMSA; 8 pmol RNA with 24 pmol HER3ECD, 37 C", "conditions": "tags: C-terminal V5 and hexa-His (pMT/BiP/V5-His A, S2 insect cells); chain copies: oligomeric (self-associated; stated); label: internal 32P", "protocol": "(§1) For screening purposes, 8 pmol of internally labeled aptamer were incubated in binding buffer with 24 pmol of HER3ECD at 37° C. for 10 minutes and analyzed on 6% non-denaturing polyacrylamide gels as described above. Aptamers displaying substantial shift were reverse transcribed and sequenced. For subsequent analysis of A30 binding, internally labeled and unlabeled A30 was denatured at 90° C. for 2 min in PBS and cooled on ice for 1 min. A30 was incubated with HER3ECD in binding buffer for 10 min at 37° C. at the indicated concentrations and in the presence 0.5 μM tRNA and was analyzed by electrophoresis on a non-denaturing 6% polyacrylamide gel at 4° C. Were indicated, HER3ECD and heregulin were premixed at room temperature three minutes before the addition of A30."}, "[2]": {"target": "T1, HER3 extracellular domain (HER3ECD, …)", "assay": "EMSA; 8 pmol RNA with 24 pmol HER3ECD, 37 C; A18 and A30 do not displace each other", "conditions": "tags: C-terminal V5 and hexa-His (pMT/BiP/V5-His A, S2 insect cells); chain copies: oligomeric (self-associated; stated); label: internal 32P", "protocol": "as §1"}, "[3]": {"target": "T2, HER3 on MCF7 cells (with endogenous HER2) (Homo sapiens, UniProt P21860 SEQ:20-1342)", "T2 sequence (P21860 20-1342 E560G/E1064G)": "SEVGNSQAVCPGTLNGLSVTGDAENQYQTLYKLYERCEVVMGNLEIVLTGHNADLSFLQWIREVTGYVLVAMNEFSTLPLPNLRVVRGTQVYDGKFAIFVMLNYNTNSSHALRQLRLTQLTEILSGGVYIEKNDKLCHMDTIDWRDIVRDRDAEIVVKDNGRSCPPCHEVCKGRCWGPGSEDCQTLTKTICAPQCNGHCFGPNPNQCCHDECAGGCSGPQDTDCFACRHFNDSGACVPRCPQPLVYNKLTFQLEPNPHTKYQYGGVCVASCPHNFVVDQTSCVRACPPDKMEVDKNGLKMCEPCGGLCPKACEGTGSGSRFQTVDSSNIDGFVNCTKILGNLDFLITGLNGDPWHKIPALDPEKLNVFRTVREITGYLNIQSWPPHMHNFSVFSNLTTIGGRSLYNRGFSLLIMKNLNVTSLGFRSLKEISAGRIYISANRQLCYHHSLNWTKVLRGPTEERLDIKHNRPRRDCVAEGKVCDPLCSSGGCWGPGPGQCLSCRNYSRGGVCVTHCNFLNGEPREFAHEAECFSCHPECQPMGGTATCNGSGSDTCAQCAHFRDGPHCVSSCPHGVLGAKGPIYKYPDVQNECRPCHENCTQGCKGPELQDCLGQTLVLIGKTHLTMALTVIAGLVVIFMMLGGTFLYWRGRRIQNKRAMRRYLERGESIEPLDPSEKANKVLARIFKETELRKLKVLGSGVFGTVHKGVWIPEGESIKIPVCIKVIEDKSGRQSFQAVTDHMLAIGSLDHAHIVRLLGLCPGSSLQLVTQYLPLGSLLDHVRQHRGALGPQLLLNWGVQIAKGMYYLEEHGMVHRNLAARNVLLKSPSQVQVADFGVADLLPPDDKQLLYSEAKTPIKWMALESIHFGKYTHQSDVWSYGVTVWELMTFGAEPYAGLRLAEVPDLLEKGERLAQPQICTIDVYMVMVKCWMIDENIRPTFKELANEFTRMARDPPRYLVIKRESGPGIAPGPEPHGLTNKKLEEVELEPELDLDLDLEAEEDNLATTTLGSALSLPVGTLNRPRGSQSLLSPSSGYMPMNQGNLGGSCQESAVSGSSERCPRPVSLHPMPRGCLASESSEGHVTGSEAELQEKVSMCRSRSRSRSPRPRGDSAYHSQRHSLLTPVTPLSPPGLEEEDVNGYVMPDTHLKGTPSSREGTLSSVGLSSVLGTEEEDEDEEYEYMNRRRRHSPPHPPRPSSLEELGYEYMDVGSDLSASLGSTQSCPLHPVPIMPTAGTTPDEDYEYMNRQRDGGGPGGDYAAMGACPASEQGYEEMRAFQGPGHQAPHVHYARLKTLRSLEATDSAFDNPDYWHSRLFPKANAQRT", "assay": "competition; high affinity site on MCF7 cells, 4 C, PBS, +/-0.2, Scatchard", "conditions": "label: internal 32P; triple hairpin loop", "protocol": "(§2) MCF7 cells (ATCC) were grown to 70% confluency on 6 well plates and washed with ice cold PBS. Following the washes, cells were incubated at 4° C. with 1 mL ice cold PBS or PBS containing 200 nM heregulin. After four hours an equal volume of ice cold PBS containing two microliter internally ³²P labeled A30 aptamer (80,000 cpm/μL), 20 μL RNAse inhibitor (20 units/μL), and varying concentrations of unlabeled aptamer were added. After four hours incubation, the supernatant was removed, and cells were washed three times with ice cold PBS. Displaced and bound radiolabeled aptamer was measured in duplicate.\n(§3) Several lines of evidence provide evidence that the interaction of A30 with HER3ECD involves at least two different modes of binding. […] Addition of heregulin has two consequences. […] With respect to the heregulin-induced increase and dual mode of binding, we observed a similar, although less pronounced, effect for A30 binding to MCF7 cells (FIG. 4B+C). MCF7 cells endogenously express both HER3 and HER2. […] The addition of heregulin results in an increase in the number of A30 binding sites FIG. 4B), but this increase is relatively small (25% total 17% for low affinity and 8% for high affinity sites)."}, "[4]": {"target": "T2, HER3 on MCF7 cells (with endogenous …)", "assay": "competition; low affinity site on MCF7 cells, 4 C, PBS, +/-2.2, Scatchard", "conditions": "label: internal 32P; triple hairpin loop", "protocol": "as §2, §3"}, "[5]": {"target": "HER2 extracellular domain (HER2-ECD) (Homo sapiens, UniProt P04626 SEQ:23-652)", "assay": "EMSA; 0.5 uM protein", "conditions": "label: internal 32P; triple hairpin loop"}, "heregulin": {"target": "T3, heregulin (Homo sapiens)", "T3 chain": "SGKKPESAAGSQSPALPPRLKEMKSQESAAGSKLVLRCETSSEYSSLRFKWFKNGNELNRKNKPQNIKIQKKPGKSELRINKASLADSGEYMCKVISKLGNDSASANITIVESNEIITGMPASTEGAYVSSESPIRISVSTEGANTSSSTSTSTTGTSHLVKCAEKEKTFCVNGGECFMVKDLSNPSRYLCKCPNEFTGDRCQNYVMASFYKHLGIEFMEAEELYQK", "assay": "EMSA; 0.5 uM protein", "conditions": "label: internal 32P; triple hairpin loop"}, "[6]": {"target": "T1, HER3 extracellular domain (HER3ECD, …)", "assay": "EMSA; apparent Kd by displacement with unlabeled A30; no heregulin; 10 mM HEPES pH 7.4, 100 mM NaCl, 2.5 mM MgCl2, 37 C, 0.5 uM tRNA", "conditions": "tags: C-terminal V5 and hexa-His (pMT/BiP/V5-His A, S2 insect cells); chain copies: oligomeric (self-associated; stated); label: internal 32P; triple hairpin loop", "protocol": "as §1, §3"}, "[7]": {"target": "T2, HER3 on MCF7 cells (with endogenous …)", "assay": "cell_activity; half-maximal inhibition of heregulin-specific MCF7 growth; maximum 50% inhibition", "conditions": "label: internal 32P; triple hairpin loop", "protocol": "MCF7 cells were seeded in 96 well plates (2500 cells/well) in RPMI, 2% fetal bovine serum, 2 units of RNAse inhibitor/ml and varying concentrations of heregulin and aptamer. After two days, cell growth was determined using an MTT/tetrazolium based assay (Promega). Cell growth was equated with the absorbance of converted and solubilized dye at 560 nm. All samples were determined in triplicate.\nNext, we evaluated the ability of A30 to interfere with receptor activation by wild type heregulin. […] In contrast, the activation of HER2 by EGF, which proceeds through hetetodimers of EGFR and HER2, is not inhibited by A30 (FIG. 7b). The low intensity of tyrosine phosphorylation of HER2 after stimulation by EGF is a reflection of the lower levels of EGFR (5000/cell) compared to HER2 (15,000) and HER3 (25,000) (see, e.g. Aguilar et al. (1999) Oncogene 18, 6050-62) and the fact that EGFR signaling proceeds only in part through heterodimers with HER2. To evaluate if the inhibition of tyrosine phosphorylation is reflected in a reduction in heregulin-specific growth stimulation, we incubated MCF7 cells in the presence of different concentrations of A30 and heregulin for two days (FIG. 8). […] Half-maximal inhibition occurs at around 1 nM A30. The addition of A30 alone has little effect on the growth of MCF7 cells."}}, "data": [{"binder": "B1", "values": [{"measurement": "binding result", "setting": "[1]", "value": "binds"}]}, {"binder": "B2", "values": [{"measurement": "binding result", "setting": "[2]", "value": "binds"}]}, {"binder": "B3", "values": [{"measurement": "binding result", "setting": "[1]", "value": "binds"}]}, {"binder": "B4", "values": [{"measurement": "binding result", "setting": "[1]", "value": "binds"}]}, {"binder": "B5", "values": [{"measurement": "binding result", "setting": "[1]", "value": "binds"}]}, {"binder": "B6", "values": [{"measurement": "Kd", "setting": "[3]", "value": 3.3, "unit": "nM"}, {"measurement": "Kd", "setting": "[4]", "value": 21, "unit": "nM"}, {"measurement": "binding result", "setting": "[5]", "value": "no binding"}, {"measurement": "binding result", "setting": "heregulin", "value": "no binding"}, {"measurement": "Kd", "setting": "[6]", "value": 45, "unit": "nM"}, {"measurement": "IC50", "setting": "[7]", "value": "~1", "unit": "nM"}]}]}
